Patent publication US20260258115A1
Substitutions are numbered along the chain they refer to.

B1: ADI-41233 (antibody, V domains shown)
VH: EVQLLESGGGLVKPGGSLRLSCAASGFIFRDYYMIWIRQAPGKGLEWVSYISSSSTYTNNADSVKGRFTISRDNAKNSLYLQMNSLRAEDTAVYYCARLFASRSDGAFDIWGQGTTVTVSS
VL: QSVLTQPPSVSGAPGQRVTISCTGSSSNIGAGYDVHWYQQLPETAPKLLIYDNNNRPSGVPDRFSGSKSGTSASLAITGLQAEDEADYYCQSYDSSLSGYVFGTGTTVTVL
B2: ADI-41234 (antibody, V domains shown)
VH: QVQLVQSGGGVVQPGRSLRLSCAASGFTVSSYAIHWVRQSAGKGLEWVAVEGRFTISRDNSKNTLYLQMNSLRAEDTAVYYCARLSEALVEPAAHTQYKYHYGLDVWGQGTTVTVSS
VL: EIVLTQSPLSLPVTPGEPASISCKSSQSLLDSNGYNYLDWYLQKPGQSPQLLIYLVSNRASGVPDRFSGSGSGTDFTLKISRVEAEDVGIYYCMQALQTPWTFGQGTKVEIK
B3: ADI-41235 (antibody, V domains shown)
VH: QVQLQQWGAGLLKPSETLSLTCGVYGESFSGHYWSWIRQPPGKGLEWMGEIHHSGTTNYNPSLKSRVTISVDTSKNQFSLKLNSVTAADTAVYYCARNPAEDILTGYSPPFHYYYMDVWGKGTTVTVSS
VL: QSVLTQPPSVSGAPGQRVTISCTGSSSNIGAGYDVHWYQQIPGTAPKLLIHSNNNRPSGVPDRFSGSKSGTSASLAITGLQAEDEADYYCQSYDSSLSVVFGGGTKLTVL
B4: ADI-41236 (antibody, V domains shown)
VH: QVQLVQSGGGLVKPGGSLRLSCTASGFTFSDYYMDWIRQAPGKGLEWVSSISSSSTYTKYADSVKGRFTISRDNAKNSLFLQMNSLRAEDTAVYYCVRNLGPYCSSTSCFVFDYWGQGTLVTVSS
VL: QSVLTQPPSVSGAPGQRVSISCTGSSSNIGAGYEVHWYKQVPGTAPRLLMYDNTNRPSGVPDRVSGSKSGTSASLAITGLQAEDEADYYCQSYDNSLNKSVFGGGTKVTVL
B5: ADI-41240 (antibody, V domains shown)
VH: QVQLQQWGAGLLKPSETLSLICDVYGGSFSDYYWSWIRQSPGKGLEWIGEINHSGSTSFHPSLKSRISISIDTSNNQFSLNLSSMTAADTAVYYCARGTLRGYFDYWGQGTLVTVSS
VL: EIVLTQSPSTLSAFVGDRVTITCRASQSISRWLAWYQQKPGKAPNLLISEASSLESGVPSRFSGSGSGTEFTLTISSLQPDDLGTYYCQQYNGYLWTFGQGTKVEIK
B6: ADI-41241 (antibody, V domains shown)
VH: QVQLVQSGAEVKKPGASVQVSCKASGYTFTGDYMHWVRQAPGQGLEWMGRINPNSGGTNYAQKFQGRVTMTRDTSISTAYMELSRLRSDDTAVYYCARAAAEYSSSSPTSYYYMDVWGKGTTVTVSS
VL: EIQMTQSPSSLSASVGDRVTITCRASQNIYSFLNWYQQKPGKAPKLLIYAASSLQSGVPSRFSGSGSATDFTLTISSLQPEDFATYYCQQSYSPPQITFGQGTKVDIK
B7: ADI-41243 (antibody, V domains shown)
VH: QVQLVQSRAEVKKPGESLKISCKGSLHSFSNNWIGWVRQMPGKGLEWMGIIFPDDSDTRYSPSFQGQVTISADKSISTAYLQWSSLKASDTAIYYCGTVVTLIQGVADWGQGTLVTVSS
VL: QPVLTQPHSVSESPGKTVTISCTRSSGSIDSSYVQWYQQRPGSSPTTVIYEDNLRPSGVPDRFSGSIDSSSNSASLTISGLKTEDEAEYYCQSYDSSNPVVFGGGTKLTVL
B8: ADI-41244 (antibody, V domains shown)
VH: QVTLKESGGGLIQPGGSLRLSCAVSGFTVSSKYMSWVRQAPGKGLEWVSVIYGGGSTYYTDSVKGRFTISRDNSNNTLYLQMNSLRAEDTAIYYCAREARSYNYDYVGNDAFDIWGQGTTVTVSS
VL: DIVLTQTPDSLAVSLGERATINCKSSQSVLNNFNNKNYLAWYQQKPGQPPKLLIYWASTRESGVPDRFSGSGSGTDFTLTITSLQAEDVAIYYCQQYYRTPPYTFGQGTKVDIK
B9: ADI-41247 (antibody, V domains shown)
VH: QVQLVQSGAEVKKPGASLQVSCKASGYTFTDSYFHWVRQAPGQGLEWMGRISPHSGGTNYAQKFQGRVTMTRDTSISTAYLELSRLRSDDTAVYYCATEGPRGPFRFDPWGQGTLVTVSS
VL: NFMLTQPHSVSESPGKTVTISCTRSSGSIASNYVQWYQQRPGSSPTTVIYEDNQRPSGVPDRFSGSIDSSSNSASLTISGLMTEDEADYYCQSYDSSNWVFGGGTKLTVL
B10: ADI-41248 (antibody, V domains shown)
VH: QVQLVQSGGGVVQPGRSLRLSCAASGFTFSSYSMHWVRQAPGKGLEWMAVCWYDGSNIYYADSVKGRFTISRDNSKNTVYLQMNSLRAEDTAVYYCARDDRYCSGGTCLSAFDIWGQGTMVTVSS
VL: ETTLTQSPSSLSASVGDRVTITCRASQSISSYLNWYQQKPGRAPKLLIYTTSSLQSGVSSRFSGSGSGTDFTLTINSLQPEDFATYYCQQSYSTPNTFGQGTKVEIK
B11: ADI-41250 (antibody, V domains shown)
VH: QVQLQQWGAGLLKPSETLSLTCAVSGESLTGYFWSWIRQPPGKGLEWIGEVSHSGSTNYNPSLKSRVTMSVDTSKTQFSLKLNSVTAADTAVYYCARGYDYWSGTARYFDYWGQGILVTVSS
VL: QPVLTQPASVSGSPGQSITISCTGTSSDVGGYNYVSWYQQHPGKAPKLMIYDVSNRPSGVSSRFSGSKSGNTASLTISGLQAEDEGDYYCSSYRSSTTSRVFGGGTKVTVL
B12: ADI-41252 (antibody, V domains shown)
VH: EVQLVQSGAEVKKPGESLKISCMGSGYNFPNYWIGWVRQMSGKGLEWMGIIYPDDSDTTYSPSFQGQVIFSADKSISTAYLQWSSLKASDTAMYFCVRLDKTTQIDFWGQGTLVTVSS
VL: EIVLTQSPSSLSASVGDRVTITCQASQDISNYLNWYQQKPGKAPKLLIYDVSNLETGVPSRFSGSGSGTDFTFTISSLQPEDIATYYCQQHDNLPLTFGQGTRLEIK
B13: ADI-41263 (antibody, V domains shown)
VH: QVQLVQSGAEVKKPGASVKVYCKASGYTFTSHYIHWVRQAPGQGLEWMGRMNPSGGSPMYAQKFQERVTMTRDTSTSTAYMELRSLRSEDTAVYYCAMAKFYSFDYWGQGTLVTVSS
VL: B9 VL with N1Q, F2S, M3V, N32Y, Y33F, Q35H, S44A, T47I, M82K
B14: ADI-41264 (antibody, V domains shown)
VH: EVQLVESGGGLVKPGGSLRLSCAASGFTFSNTWMSWVRQAPGKGLEWVGHIKSKTDGGTTDYAAPVKGRFTISRDDSKSILNLHLNSLKTEDSAVYYCAALPPISGWYYTPGFWGQGTLVTVSS
VL: SYELTQPPSMSVSPGQTARITCFGDAVPKKYVYWYQQKSGQAPVMVIYDDRRRPSGIPERFSGSSSGARATLTISGAQVEDEADYYCYSTDGSGNPSFGGGTKLTVL
B15: ADI-41289 (antibody, V domains shown)
VH: EVQLVQSGAEVKKPGESLKISCKGSGYSFSSFWIGWVRQMPGKGLEWMGIIYPGDSDTRYSPSFQGQVTISADQSIRTAYLQWNSLKASDTGLYYCAKGGLGDVEMATIAVWGQGTLVTVSS
VL: QSVLIQPASVSGSPGQSITIPCTGTSSDVGSYNLVSWYQHHPGKAPKLIISEGSKRPLGVSNRFSGSKSGNTASLTISGLQAEDEADYYCSSYVRSRTFNYVFGTGTKLTVL

target: Respiratory Syncytial Virus fusion glycoprotein (RSV F) on RSV-A2 virus (Respiratory Syncytial Virus subtype A (RSV-A2)); experiment: cell-based or functional assay

B1 and B2 are within 1.5-fold of each other in Neutralization IC50 (RSV subtype A): 0.15 mg/L for the first, 0.1 mg/L for the second.

target: RSV postfusion F (postF, F deltaFP) (Respiratory syncytial virus); experiment: BLI, IgG on sensor, 100 nM antigen

First: B3
Second: B4
The Kd of the first is 19-fold lower: 3.24 nM for the first, 61.3 nM for the second. The first binds more tightly here.

B5 and B6 are within 1.5-fold of each other in Kd: 1.2 nM for the first, 0.927 nM for the second.

Compared with B7, B8 is 2-fold higher in Kd: 0.418 nM for the first, 0.843 nM for the second. The first binds more tightly here.

Compared with B9, B10 is 2.6-fold lower in Kd: 1.02 nM for the first, 0.392 nM for the second.

Going from B11 to B12, the Kd rises from 0.504 nM to 1 nM (2-fold).

B13 and B14 are within 1.5-fold of each other in Kd: 0.345 nM for the first, 0.484 nM for the second.

Work on B15 yielded a Kd of 0.881 nM.

target: RSV prefusion F (preF, DS-Cav1) (Respiratory syncytial virus); experiment: BLI, IgG on sensor, 100 nM antigen

Going from B3 to B5, the Kd falls from 4.72 nM to 2.15 nM (2.2-fold). The second binds more tightly here.

B6 and B7 are within 1.5-fold of each other in Kd: 3.84 nM for the first, 3.55 nM for the second.

B9 and B10 are within 1.5-fold of each other in Kd: 2.76 nM for the first, 3.35 nM for the second.

Going from B11 to B12, the Kd rises from 0.731 nM to 1.37 nM (1.9-fold). The first binds more tightly here.

Work on B13 yielded a Kd of 2.9 nM.

target: RSV prefusion F (preF), DS-Cav1 (Respiratory Syncytial Virus); experiment: BLI, IgG on anti-human IgG sensor, 100 nM antigen

B1 and B2 are within 1.5-fold of each other in Kd: 1.06 nM for the first, 1.46 nM for the second.
